According to patent US5854204A, “Aβ peptides that modulate β-amyloid aggregation” (priority 1996, dated 1998):

What was measured:
[1] = molecular target: Aβ peptide (Homo sapiens, UniProt P05067); settings: Camilleri et al. (1994); cited from earlier work
[2] = molecular target: T1, natural β-AP (β-AP1-40) (Homo sapiens, UniProt P05067); assay: Optical density (turbidity, A400 nm) aggregation assay; type: biochemical
T1 construct: Natural β-AP (β-AP1-40) was obtained commercially from Bachem (Torrance, Calif.); purchased Bachem (Torrance, Calif.)
Protocol: In one assay, β-AP aggregation was measured by determining the increase in turbidity of a solution of natural β-AP over time in the absence or presence of various concentrations of the modulator. Turbidity of the solution was quantitated by determining the optical density at 400 nm (A400 nm) of the solution over time.
The aggregation of natural β-AP in the absence of modulator was determined as follows. β-AP1-40 was dissolved in hexafluoro isopropanol (HFIP; Aldrich Chemical Co., Inc.) at 2 mg/ml. Aliquots of the HFIP solution (87 μl) were transferred to individual 10 mm×75 mm test tubes. A stream of argon gas was passed through each tube to evaporate the HFIP. To the resulting thin film of peptide, dimethylsulfoxide (DMSO; Aldrich Chemical Co., Inc.) (25 μl) was added to dissolve the peptide. A 2 mm×7 mm TEFLON™-coated magnetic stir bar was added to each tube. Buffer (475 μL of 100 mM NaCl, 10 mM sodium phosphate, pH 7.4) was added to the DMSO solution with stirring. The resulting mixture was stirred continuously and the optical density was monitored at 400 nm to observe the formation of insoluble peptide aggregates.
Alternatively, β-AP1-40 was dissolved in DMSO as described above at 1.6 mM (6.9 mg/ml) and aliquots (25 μl) were added to stirred buffer (475 μl), followed by monitoring of absorbance at 400 nm. […]

[3] = molecular target: T2, β-AP1-40 (Homo sapiens, UniProt P05067); assay: Static aggregation assay (SDS-PAGE); type: biochemical
T2 construct: Natural β-AP (β-AP1-40) was obtained commercially from Bachem (Torrance, Calif.); purchased Bachem (Torrance, Calif.)
Protocol: In a third assay, β-AP aggregation was measured by visualization of the peptide aggregates using SDS-polyacrylamide gel electrophoresis (SDS-PAGE). In this assay, β-AP solutions were allowed to aggregate over a period of time and then aliquots of the reaction were run on a standard SDS-PAGE gel. Typical solution conditions were 200 μM of β-AP1-40 in PBS at 37° C. for 8 days or 200 μM β-AP1-40 in 0.1M sodium acetate at 37° C. for 3 days. The peptide aggregates were visualized by Coomassie blue staining of the gel or, for β-AP solutions that included a biotinylated β-AP modulator, by western blotting of a filter prepared from the gel with a streptavidin-peroxidase probe, followed by a standard peroxidase assay. The β-AP aggregates are identifiable as high molecular weight, low mobility bands on the gel, which are readily distinguishable from the low molecular weight, high mobility β-AP monomer or dimer bands.

T1 sequence (P05067 672-711): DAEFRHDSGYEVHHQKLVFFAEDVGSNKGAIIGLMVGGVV
T2 sequence (P05067 672-711): as above
Aβ peptide, sequence (P05067 672-711 limits assumed): as the sequence (P05067 672-711) above

aggregation of natural β-AP1-40 (turbidity, optical density at 400 nm) ([2]; modulator at 1% in the natural β-AP1-40 solution)	aggregation of natural β-AP1-40 (turbidity, optical density at 400 nm) ([2]; modulator at 5% in the natural β-AP1-40 solution)	Compound	fibril formation in vitro [1]	aggregation of mixture with natural β-AP1-40 (high molecular weight aggregates on SDS-PAGE) ([3]; mixture of natural β-AP1-40 and modulator)	self-aggregation of the modulator (high molecular weight aggregates on SDS-PAGE) ([3]; modulator alone, no natural β-AP)
		OC[C@H]1O[C@@H]2O[C@H]3[C@H](O)[C@@H](O)[C@@H](O[C@H]4[C@H](O)[C@@H](O)[C@@H](O[C@H]5[C@H](O)[C@@H](O)[C@@H](O[C@H]6[C@H](O)[C@@H](O)[C@@H](O[C@H]7[C@H](O)[C@@H](O)[C@@H](O[C@H]8[C@H](O)[C@@H](O)[C@@H](O[C@H]1[C@H](O)[C@H]2O)O[C@@H]8CO)O[C@@H]7CO)O[C@@H]6CO)O[C@@H]5CO)O[C@@H]4CO)O[C@@H]3CO [β-cyclodextrin]	inhibit fibril formation in vitro		
markedly inhibited	similarly inhibited aggregation	N-biotinyl-βAP1-40		reduced amounts of the peptide mixture associated into high molecular weight aggregates	few if any high molecular weight aggregates were observed
